Reference: patent US20110104152A1 (Genentech, published 2011)

Experiments:
[1] = target: T1, FGFR4-Fc (recombinant polypeptide comprising a human FGFR4 extracellular domain fused to a human IgG1 Fc … (human, UniProt P22455 22-369)); test: ELISA, FGFR-Fc captured by anti-human IgG-Fc antibody, 2 µg/mL heparin, no Klotho-beta
T1 construct: extracellular domain; Bought reagent; also called FGFR4 fused to Fc fragment; catalog no; 685-FR-050, R&D Systems; not shown: human IgG1 Fc fragment
T1 sequence (looked up): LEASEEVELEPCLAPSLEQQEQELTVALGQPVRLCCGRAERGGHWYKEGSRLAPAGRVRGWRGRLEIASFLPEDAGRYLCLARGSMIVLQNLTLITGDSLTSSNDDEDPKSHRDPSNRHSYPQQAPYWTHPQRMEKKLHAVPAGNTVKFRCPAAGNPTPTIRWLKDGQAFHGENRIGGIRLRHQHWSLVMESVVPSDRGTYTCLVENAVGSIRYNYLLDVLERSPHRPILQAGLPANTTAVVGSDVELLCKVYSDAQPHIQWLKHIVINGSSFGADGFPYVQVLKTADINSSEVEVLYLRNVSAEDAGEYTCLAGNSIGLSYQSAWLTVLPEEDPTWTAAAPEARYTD
Experimental: Monoclonal antibodies specific for human IgG-Fc fragment (Jackson ImmunoResearch, West Grove, Pa., USA) were immobilized in the wells of Maxisorp™ flat-bottom 96-well plates (Nunc, Thermo Fisher Scientific, Rochester, N.Y.) by overnight incubation with 100 μl per well of 2 μg/ml antibody solution. Each well was then incubated with either 1 μg/ml of FGFR4—Fc (a recombinant polypeptide comprising a human FGFR4 extracellular domain fused to a human IgG₁ Fc fragment; catalog no. 685-FR-050, R&D Systems, Inc., Minneapolis, Minn.) or 1 μg/ml FGFR1c-Fc (a recombinant polypeptide comprising a human FGFR1c extracellular domain fused to a human IgG₁ Fc fragment; catalog no. 658-FR-050, R&D Systems).
The surface-immobilized FGFR4-Fc or FGFR1c-Fc polypeptides were incubated for 1 hr with native human FGF19-Flag polypeptide with a C-terminal epitope tag (See FGF19-Flag in Table 10, SEQ ID NO:237) at concentrations of 1 μg/mL, 0.4 μg/mL, 0.16 μg/mL, 0.064 μg/mL, 0.0256 μg/mL, 0.004096 μg/mL or 0.0016384 μg/mL, each with 2 μg/mL heparin, to allow binding of the FGF19 polypeptide to the receptor domain. […]

[2] = target: human FGFR4 polypeptide expressed in transfected rat L6 myoblasts (human, UniProt P22455 22-802); test: cell-based or functional assay
[3] = target: human FGFR1c polypeptide expressed in transfected rat L6 myoblasts (human, UniProt P11362 22-822); test: cell-based or functional assay
Sequence of human FGFR1c polypeptide expressed in transfected rat L6 myoblasts (P11362 22-822): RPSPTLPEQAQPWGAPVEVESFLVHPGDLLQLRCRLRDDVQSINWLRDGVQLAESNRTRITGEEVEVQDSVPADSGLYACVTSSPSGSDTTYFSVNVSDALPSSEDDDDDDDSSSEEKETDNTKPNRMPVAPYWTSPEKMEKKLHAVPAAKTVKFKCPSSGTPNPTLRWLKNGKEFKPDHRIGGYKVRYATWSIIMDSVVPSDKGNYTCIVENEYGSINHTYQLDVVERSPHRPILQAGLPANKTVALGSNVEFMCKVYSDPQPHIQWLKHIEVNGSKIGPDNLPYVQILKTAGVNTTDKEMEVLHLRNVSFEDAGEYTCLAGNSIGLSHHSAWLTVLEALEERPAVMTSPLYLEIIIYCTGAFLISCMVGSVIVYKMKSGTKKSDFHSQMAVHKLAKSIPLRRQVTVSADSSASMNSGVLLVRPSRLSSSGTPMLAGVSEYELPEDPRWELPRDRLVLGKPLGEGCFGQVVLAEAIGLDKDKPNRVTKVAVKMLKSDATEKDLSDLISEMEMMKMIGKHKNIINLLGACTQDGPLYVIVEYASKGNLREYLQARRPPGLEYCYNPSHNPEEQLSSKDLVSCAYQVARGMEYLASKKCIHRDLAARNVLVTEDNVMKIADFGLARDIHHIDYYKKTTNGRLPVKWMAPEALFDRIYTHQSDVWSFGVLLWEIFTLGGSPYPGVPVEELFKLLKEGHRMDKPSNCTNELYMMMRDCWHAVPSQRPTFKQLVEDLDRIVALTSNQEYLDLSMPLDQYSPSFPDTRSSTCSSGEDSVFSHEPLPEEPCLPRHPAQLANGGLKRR

EC50 of dose-dependent activation of luciferase (GAL4-Elk1 reporter), L6 cells with FGFR4 and KLB [2]: 0.269 µg/mL
EC50 of dose-dependent activation of luciferase (GAL4-Elk1 reporter), L6 cells with KLB and FGFR1c [3]: 0.0227 µg/mL
B1: chimeric FGF19 polypeptide cFGF21/19-2/Flag (ligand)
chain: HPIPDSSPLLQFGGQVRQRYLYTSGPHGLSSCFLRIRADGVVDCARGQSAHSLLEIKAVALRTVAIKGVHSVRYLCMGADGKMQGLLQYSEEDCAFEEEIRPDGYNVYRSEKHRLPVSLSSAKQRQLYKNRGFLPLSHFLPMLPMVPEEPEDLRGHLESDMFSSPLETDSMDPFGLVTGLEAVRSPSFEKDYKDDDDK
notes: also called chimeric FGF19-Flag polypeptide; FGF19v
binding result [1]: no binding (tested: 1 µg/mL (highest concentration tested))
